Assay results reported in the DeepSol protein solubility set.

Assay: soluble on expression in E. coli; label from the status in PepcDB or PDB records

Soluble on expression in E. coli, not soluble:
MLKFRTVHGGLRLLGIRRTSTAPAASPNVRRLEYKPIKKVMVANRGEIAIRVFRACTELGIRTVAIYSEQDTGQMHRQKADEAYLIGRGLAPVQAYLHIPDIIKVAKENNVDAVHPGYGFLSERADFAQACQDAGVRFIGPSPEVVRKMGDKVEARAIAIAAGVPVVPGTDAPITSLHEAHEFSNTYGFPIIFKAAYGGGGRGMRVVHSYEELEENYTRAYSEALAAFGNGALFVEKFIEKPRHIEVQILGDQYGNILHLYERDCSIQRRHQKVVEIAPAAHLDPQLRTRLTSDSVKLAKQVGYENAGTVEFLVDRHGKHYFIEVNSRLQVEHTVTEEITDVDLVHAQIHVSEGRSLPDLGLRQENIRINGCAIQCRVTTEDPARSFQPDTGRIEVFRSGEGMGIRLDNASAFQGAVISPHYDSLLVKVIAHGKDHPTAATKMSRALAEFRVRGVKTNIAFLQNVLNNQQFLAGTVDTQFIDENPELFQLRPAQNRAQKLLHYLGHVMVNGPTTPIPVKASPSPTDPVVPAVPIGPPPAGFRDILLREGPEGFARAVRNHPGLLLMDTTFRDAHQSLLATRVRTHDLKKIAPYVAHNFSKLFSMENWGGATFDVAMRFLYECPWRRLQELRELIPNIPFQMLLRGANAVGYTNYPDNVVFKFCEVAKENGMDVFRVFDSLNYLPNMLLGMEAAGSAGGVVEAAISYTGDVADPSRTKYSLQYYMGLAEELVRAGTHILCIKDMAGLLKPTACTMLVSSLRDRFPDLPLHIHTHDTSGAGVAAMLACAQAGADVVDVAADSMSGMTSQPSMGALVACTRGTPLDTEVPMERVFDYSEYWEGARGLYAAFDCTATMKSGNSDVYENEIPGGQYTNLHFQAHSMGLGSKFKEVKKAYVEANQMLGDLIKVTPSSKIVGDLAQFMVQNGLSRAEAEAQAEELSFPRSVVEFLQGYIGVPHGGFPEPFRSKVLKDLPRVEGRPGASLPPLDLQALEKELVDRHGEEVTPEDVLSAAMYPDVFAHFKDFTATFGPLDSLNTRLFLQGPKIAEEFEVELERGKTLHIKALAVSDLNRAGQRQVFFELNGQLRSILVKDTQAMKEMHFHPKALKDVKGQIGAPMPGKVIDIKVVAGAKVAKGQPLCVLSAMKMETVVTSPMEGTVRKVHVTKDMTLEGDDLILEIE
MLKPKEINTENKSKKRIYLSSPHMSDEGYEKQYINEAFETNWIAPLGKNVDEFEKELAAKVGIKAAAALSSGTAAIHMALKAAGVGEGDIVFCPTLTFAATANPIIYQNAIPVFIDSDYETWNMSPEALEEAFKKYPKVKAVLVVHLYGLSADMDKIVEICKKHDVQLIEDAAESLGTTYKGRYTGTIGDYGIYSFNGNKIITTSGGGMLVSDNEERIAKVRFWATQARDNARHYQHSELGYNYRMSNVIAGIGRGQLKVLDQRIEKKRYIFDFYKRELGCIDEIDFMPVNDWNKPNCWLTCITLTGKVRPLDVIIRLEEENIESRPVWKPMHMQPFYQHYDYIGSNVSEKIFENGVCLPSDTKMTDEDLYRVVNIIKGLWK
MLKRCNFKNQVKYFQSDFEQLIRQHPEKIIILDFYATWCGPCKAIAPLYKELATTHKGIIFCKVDVDEAEDLCSKYDVKMMPTFIFTKNGDAIEALEGCVEDELRQKVLEHVSAQ
MLLAGLLASVEHGLNRVLRLDSTALPRLAALEGKVIEIDCRQPALQVFILPDEEGLMLAAHWQGEVDCRLRAPAGSLAQLALVKDKTAVLHSPQVELHGDSAVLLDLFGVLQDLELDWEHELQRWLGPVATAMLAGHIRLRARWTRQGLARFSQNLSEYLAEESRTLVGKREAEAAFSELDALKLDTERLEARLKRLSRSLDTSDNA
MLLENGWIVGVKQVLSPHFDLRPEGEMPSLLVIHSISLPPSEFGGPYIDQLFTGTLNADEHPYFASIVHLRVSAHCLIRRDGEIIQYVPFDKRAWHAGVSVFAGRERCNDFSIGIELEGTDVLPFTPVQYQRLTEISAVLFAHYPITVERVAGHSEIAPGRKTDPGLAFDWFFYQQNLAKLLV
MLLNAVNQNQPTIAAEINYIKPNIQATFDLSTSKKSADTLTEQVDKRVVEITDARLLAKTATLKEDGFGLVANKYHMADYFDDAMVSTELYPQIIKHLMSLTNASKGVVFDHTIRSVEDKLHRAEKRSPIHTVHNDYVASSAQHRLHIELEKQGLKASDYHRYQFINTWIPLVDVVLDSPLAFADMRSVTSEQSHLLQVAYPDRVGEIEGFSYNPNNRWFYFSRMTSKEQLNFKVFDSDKSNAVNRTPHSAFLLPSVAENVQSRVSIELRTILLFNKLEHHHHHH
MLLSPPTNCRFFCFLYFPKVSSSSWEEDGFDARTLLSTPTDSSGFSLYVFSVLFCFSNLL
MLLSVIITAQGRKGYVMQAVRSVLSQNIPKEDFEIIVSKDFKDDVIDEFLDGRAIVLNENHIRSGSRVASAVLQSSGKILVFLDDDDLFYPGKLREVKIVFSEMGVDYFKNSVKPVAESGDTVSYYQPAIKSDIFVKEPNEQDIRKLLKLRAGFNSSSISLKKDILVGYLDVLSKINLAVDSFYFFLYMSHSRPIYYSKKTLSLYRVLSKSTSRDVRNINAYAEFKSKFYELYSRDFETISEMASDGPCSKLAKTEFHLQMAYKWIFNTYRKEERPRMLHTLASSIYSHDPFIALPWPSFMKKIVQRREYFREKKLLSENTELEHHHHHH
MLMSIREDVVEATSSIVPEKIHSDARNFSLVTSSSQVRSPLYLKSLDADGEDNSTVEKQITHSKKVADTELDRSLECLKENENDVKTNGEVELSAVEDALIQVVPEVSENQNPRKIGPYDFDQHANFLNS
MLNADLKQQLKQLLELMEGNVEFVASLGSDDKSKELKDLLTEITDMSPRLSLSEKSLKRTPSFSVNRPGEETGVTFAGIPLGHEFNSLVLAILQVSGRAPKEKQSIIDQIKKLEGSFHFETFISLTCQKCPDVVQALNLMSVINPNITHSMIDGAVFREESENIMAVPAVFLNGEEFGNGRMTIQDILSKLGSTADASEFENKEPYDVLIVGGGPASGSAAIYTARKGLRTGIVADRIGGQVNDTAGIENFITVKETTGSEFSSNLAAHIDQYDIDAMTGIRATDIEKTDEAIKVTLENGAVLESKTVIIATGAGWRKLNIPGEEQLINKGVAFCPHCDGPLFENKDVAVIGGGNSGVEAAIDLAGIVNHVTLFEFASELKADNVLQDRLRSLSNVDIKTNAKTTEVVGEDHVTGIRYEDMNTGEEHLLNLDGIFVQIGLLPNTSWLNDAVELNERGEIVIDRNNNTNVPGIFAAGDVTDQKNKQIIISMGAGANAALNAFDYIIRN
MLNTSDIGKVFPSVTAVVEKGRLRFFAKAIGENNPIYTDEAAAKDAGYESLPMPPTFFFSLKMDVPNPFENYEKVGASLAKILHANQAFVYHQSVVAGDSLTFESHIADIYDKKAGALEFLVEKTKVSNQRGQHVADMTTTLVVRNLEHHHHHH
MLNVEPSFAEELRSSGVSLSATYLGSVPVVESINVMVSEMRVQVVSLVFLMA
MLPAWGTSTEATASHAGWDGDDEGDIRAAYTEDEKKENIPPISLTSVSTNGAYPGQKRRRSESVRTLKPECPPEETQRLRQRRRISATDATQSSRTMNVIEDRKPRVNRARKSQDAPSTSTCGFETPVGTKRKSKAADSQKPPKQSKLRKIDEASTSKAVDNSSKDGKKTTKPAVTQSNRRRSGLSLRPVPIETIFSESSGRESSTEDEADVSHQQ
MLPDADSKDQLVTIIQSVKPPTVPPHRSHDPANNLKRTDPYQFGSRYLEEGDDVFEFNAWDHVEPDDEFKAFAEVQYAKQRESPVSDFDKQRFNKDPAKWWNLFYKNNTSNFFKDRKWLRQEFPVLAEVTQKGAGRKVVLEVGAGAGNTAFPLITHNKNEELMVHACDFSKTAVQVMRESEHYNPKFISADVWDVTAVPDEENNGLPPGLTEGSVDVVILIFIFSALAPSQWDQAIRNVYRVLKPGGLVLFRDYGRGDLAQVRFKKGRYMDENFYVRGDGTRVYFFEKEQLEKMWGTWTPEKGLQMAEDNSIVAESEGAFDVEKIGVDRRLIVNRQRKLKMYRCWIQAHYRKRETPAAVEAEKADS

Soluble on expression in E. coli, soluble:
MLIHIGIDDTDSPNGMCTTYIGAILYREISKIAEPLDFPRLIRLNPNVPYKTRGNGAVAMSFKIDEEKIKEVKTLVIRYVRELADIDHENTNPGIVFLIGEVPKELEEFSLRALREHVTIEEAEHVARKVNAEVYKFKLGRGIIGGLAAIGYPLEKFTYELLAYRKREYWGTPRRVIKESVFYADKWSYPFTYDNVDPYKRTVLITPHGKDPVLVGIRGIDVGKILQVFEMIKIEEPIEFFQVYKTNQNTDDHLVVKKIKDVKPYDNVVIRGKVAGKYWEKGRHVFFELEDETGKIRVAAFEPTKKFRNYVRKLLPGDEVIIAGGVKEFEGVLTVNLEKFYPVNLVPKVEYEKPRCPKCGGTMKSKGDYLKCKKCGYKMEKILTPVKRPRDLKKKIYEVPPDARKHISRPLVLPGGEDKILEALLEHHHHHH
MLKHIPKNISPDLLKTLMEMGHGDEIVLADANYPSASCANKLIRCDGVNIPELLDSILYLMPLDSYVDSSIQFMNVVSGDDIPKIWGTYRQMIEGHGTDLKTITYLRREDFYERSKKAYAIVATGETSLYANIILKKGVVVERENVQ
MLKIFNTLTRQKEEFKPIHAGEVGMYVCGITVYDLCHIGHGRTFVAFDVVARYLRFLGYKLKYVRNITDIDDKIIKRANENGESFVAMVDRMIAEMHKDFDALNILRPDMEPRATHHIAEIIELTEQLIAKGHAYVADNGDVMFDVPTDPTYGVLSRQDLDQLQAGARVDVVDDKRNPMDFVLWKMSKEGEPSWPSPWGAGRPGWHIECSAMNCKQLGNHFDIHGGGSDLMFPHHENEIAQSTCAHDGQYVNYWMHSGMVMVDREKMSKSLGNFFTVRDVLKYYDAETVRYFLMSGHYRSQLNYSEENLKQARAALERLYTALRGTDKTVAPAGGEAFEARFIEAMDDDFNTPEAYSVLFDMAREVNRLKAEDMAAANAMASHLRKLSAVLGLLEQEPEAFLQSGAQADDSEVAEIEALIQQRLDARKAKDWAAADAARDRLNEMGIVLEDGPQGTTWRRK
MLLWVFEYNSVSRASWGDRVPVDKNSCACLEGGYAACLCGVAKSVKGRPVLRGVSLSVKFGEIHVLAGLNGAGKTTSLRVLVGLLSRDSGEARVLGVDPWGGGFERVKGEVGYLPEDASVYERLTGMENILFYARLYSGWRDVEELVENAVFYSGLSREDLARRAGGYSKGMKRRLLLGITLMSKPRLVVLDEPTSGVDPIASNRIKKILRGLSREGRAILVTTHDLALAEEIADRVTIIHGGSTVASGPPYRLVEEYCGETLEDAFVNIVTGGGC
MLMNEFEKACETLRKFMAYMLEKDMKSWTELWDENAVFEFPYAPEGSPKRIEGKAAIYDYIKDYPKQIHLSSFTAPTVYRSADSNTVIAEFQCDGHVIETGLPYRQSYISVIETRDGRIVRYRDYWNPLVVKEAFGGSFLQTEESGK
MLPFVFNADDDGKRVQNEEGNYDPTDHQRQMEDYYKQYEEQRVANSFHNTTGRPDLVAMQARLAETEQAIHRLNEEKKQPPPGFPIMTTPATQPEISIPRSGENKSSRSPSWAREARRSRSRSRDRRGGRSRSRSPSRRRTSRDRRDDRSSRRRRGPIINQLS
MLPKAFLSRMAELLGEEFPAFLKALTEGKRTYGLRVNTLKLPPEAFQRISPWPLRPIPWCQEGFYYPEEARPGPHPFFYAGLYYIQEPSAQAVGVLLDPKPGERVLDLAAAPGGKTTHLAARMGGKGLLLANEVDGKRVRGLLENVERWGAPLAVTQAPPRALAEAFGTYFHRVLLDAPCSGEGMFRKDREAARHWGPSAPKRMAEVQKALLAQASRLLGPGGVLVYSTCTFAPEENEGVVAHFLKAHPEFRLEDARLHPLFAPGVPEWGEGNPELLKTARLWPHRLEGEGHFLARFRKEGGAWSTPRLERPSPLSQEALRAFRGFLEEAGLTLEGPVLDRAGHLYLLPEGLPTLLGLKAPAPGLYLGKVQKGRFLPARALALAFGATLPWPEGLPRLALTPEDPRALAFATGEGVAWEGEDHPLALVVLKTAAGEFPLDFGKAKRGVLRPVGVGLRSHHHHHH
